According to IntAct's records for PubMed 25619834:

B1: Influenza virus NS1A-binding protein (Homo sapiens), Q9Y6Y0 (parent)
chain: MIPNGYLMFEDENFIESSVAKLNALRKSGQFCDVRLQVCGHEMLAHRAVLACCSPYLFEIFNSDSDPHGISHVKFDDLNPEAVEVLLNYAYTAQLKADKELVKDVYSAAKKLKMDRVKQVCGDYLLSRMDVTSCISYRNFASCMGDSRLLNKVDAYIQEHLLQISEEEEFLKLPRLKLEVMLEDNVCLPSNGKLYTKVINWVQRSIWENGDSLEELMEEVQTLYYSADHKLLDGNLLDGQAEVFGSDDDHIQFVQKKPPRENGHKQISSSSTGCLSSPNATVQSPKHEWKIVASEKTSNNTYLCLAVLDGIFCVIFLHGRNSPQSSPTSTPKLSKSLSFEMQQDELIEKPMSPMQYARSGLGTAEMNGKLIAAGGYNREECLRTVECYNPHTDHWSFLAPMRTPRARFQMAVLMGQLYVVGGSNGHSDDLSCGEMYDSNIDDWIPVPELRTNRCNAGVCALNGKLYIVGGSDPYGQKGLKNCDVFDPVTKLWTSCAPLNIRRHQSAVCELGGYLYIIGGAESWNCLNTVERYNPENNTWTLIAPMNVARRGAGVAVLNGKLFVCGGFDGSHAISCVEMYDPTRNEWKMMGNMTSPRSNAGIATVGNTIYAVGGFDGNEFLNTVEVYNLESNEWSPYTKIFQF

Variants of: B1
Conditions: with cul3_human CUL3, Q13618

Row | Variant | effect of a mutation on the interaction
1 | M114L | causing an interaction
2 | F75L | causing an interaction
